# Columns and labels:
# Assay in all cases: cell_activity
# [1] = tested on: FucT1_T01 TALEN right monomer (synthetic); conditions: yeast assay as pair, full target SEQ 66 (right half printed differently from Table 1), 37 C; 0.6 at 30 C
# [2] = tested on: XylT_T03 TALEN right monomer (synthetic)
# [3] = tested on: XylT_T04 TALEN right monomer (synthetic)
# [4] = tested on: FucT1_T02/FucT2_T02 TALEN right monomer (synthetic)
# [5] = tested on: FucT2_T01 TALEN right monomer (synthetic); conditions: yeast assay as pair, full target SEQ 67, 37 C; 0.8 at 30 C
# [6] = tested on: XylT_T04 TALEN left monomer (synthetic)
# [7] = tested on: FucT1_T01 TALEN left monomer (synthetic); conditions: yeast assay as pair, full target SEQ 66 (right half printed with CTAAGC there vs AATAAGC in Table 1), 37 C; 0.6 at 30 C
# [8] = tested on: FucT2_T01 TALEN left monomer (synthetic); conditions: yeast assay as pair, full target SEQ 67, 37 C; 0.8 at 30 C
# [9] = tested on: FucT1_T02 TALEN left monomer (synthetic); conditions: for activity: N. benthamiana protoplasts
# [10] = tested on: FucT2_T02 TALEN left monomer (synthetic); conditions: for activity: N. benthamiana protoplasts
# [11] = tested on: XylT_T03 TALEN left monomer (synthetic)
# [12] = tested on: FucT_T04 TALEN left monomer (synthetic); conditions: yeast assay as pair, targets SEQ 70 and 71 (same value), 37 C; 0.5 at 30 C
# [13] = tested on: FucT_T04 TALEN right monomer (synthetic); conditions: yeast assay as pair, targets SEQ 70 and 71 (same value), 37 C; 0.5 at 30 C
# [14] = N. benthamiana protoplasts, pair, XylT1 locus, XylT2 63.9%
# [15] = yeast assay as pair, full target SEQ 65, 37 C, 0.9 at 30 C
sequence,measurement,setting,value
AATAAGCAATGGCGCAA (double strand) [FucT1_T01 right half-site (top strand as printed)],activity (relative to I-SceI),[1],0.8
ATCACTCTCTATCTCTA (double strand) [XylT_T03 right half-site (top strand as printed)],activity,"[2]; N. benthamiana protoplasts, pair, XylT1 locus, XylT2 28.2%",34.4 % NHEJ
same,activity (relative to I-SceI),"[2]; yeast assay as pair, full target SEQ 64, 37 C, 0.7 at 30 C",0.9
CTCTACTTCTCTTCCCA (double strand) [XylT_T04 right half-site (top strand as printed)],activity,[3]; [14],73.8 % NHEJ
same,activity (relative to I-SceI),[3]; [15],0.9
CTCTGTTCGTTGCCCTA (double strand) [FucT_T02 right half-site (top strand as printed)],activity,"[4]; N. benthamiana protoplasts, pair FucT1_T02 at FucT1, 24.7% at FucT2, with FucT2_T02 left monomer 46.5/45.0%",39.2 % NHEJ
same,activity (relative to I-SceI),"[4]; yeast assay as pair with FucT1 or FucT2 left monomer, targets SEQ 68 and 69, 37 C, 0.7 at 30 C",0.9
GATAAACAATGGCGCAA (double strand) [FucT2_T01 right half-site (top strand as printed)],activity (relative to I-SceI),[5],0.9
TCTCTTCGCTCTCAACT (double strand) [XylT_T04 left half-site],activity,[6]; [14],73.8 % NHEJ
same,activity (relative to I-SceI),[6]; [15],0.9
TGAGATCGGCGTCAAAT (double strand) [FucT1_T01 left half-site],activity (relative to I-SceI),[7],0.8
TGAGATCGTCGTCAAAT (double strand) [FucT2_T01 left half-site],activity (relative to I-SceI),[8],0.9
TTCAAACGCACCCAATA (double strand) [FucT1_T02 left half-site],activity,"[9]; pair FucT1_T02, FucT1 locus, control 0.79%",39.2 % NHEJ
same,activity (relative to I-SceI),"[9]; yeast assay as pair, full target SEQ 68, 37 C, 0.7 at 30 C",0.9
same,activity,"[10]; pair FucT2_T02, FucT1 locus (1-bp mismatch), control 0.79%",46.5 % NHEJ
TTCAAACGCACCCGATA (double strand) [FucT2_T02 left half-site],activity,"[9]; pair FucT1_T02, FucT2 locus (1-bp mismatch), control 0.14%",24.7 % NHEJ
same,activity,"[10]; pair FucT2_T02, FucT2 locus, control 0.14%",45 % NHEJ
same,activity (relative to I-SceI),"[10]; yeast assay as pair, full target SEQ 69, 37 C, 0.7 at 30 C",0.9
TTCTTGTTTCTCTCTTC (double strand) [XylT_T03 left half-site],activity,"[11]; N. benthamiana protoplasts, pair, XylT1 locus, XylT2 28.2%, controls 0.36/0.06%",34.4 % NHEJ
same,activity (relative to I-SceI),"[11]; yeast beta-galactosidase assay as pair, full target SEQ 64, 37 C, 0.7 at 30 C",0.9
TTGCCTCTGTTCGTTGC (double strand) [FucT_T04 left half-site],activity (relative to I-SceI),[12],0.6
TTTCTGGTTCGACTCGA (double strand) [FucT_T04 right half-site (top strand as printed)],activity (relative to I-SceI),[13],0.6
